Test results reported in patent US20240181007A1, “COMPOSITIONS AND METHODS FOR TREATING PULMONARY HYPERTENSION” (Acceleron Pharma Inc., priority 2021, published 2024).

Experiments:
GDF11 [1] = target: T1, GDF11 (Homo sapiens, UniProt O95390); assay: Biacore-based binding assay (surface plasmon resonance), GDF11; conditions: SPR 37° C.; compared to ActRIIB-G1Fc / ActRIIB-Fc homodimer
T1 sequence (O95390 299-407): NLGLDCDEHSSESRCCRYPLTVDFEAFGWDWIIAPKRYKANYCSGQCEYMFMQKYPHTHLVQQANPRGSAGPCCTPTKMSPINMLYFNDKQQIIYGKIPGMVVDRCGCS
Protocol: (§1) To determine ligand binding profiles of variant ActRIIB-Fc homodimers, a Biacore™-based binding assay was used to compare ligand binding kinetics of certain variant ActRIIB-Fc polypeptides. ActRIIB-Fc polypeptides to be tested were independently captured onto the system using an anti-Fc antibody. Ligands were then injected and allowed to flow over the captured receptor protein. ActRIIB-G1Fc was used as the control polypeptide.
(§2) To determine ligand binding profiles of variant ActRIIB-Fc homodimers, a Biacore™-based binding assay was used to compare ligand binding kinetics of certain variant ActRIIB-Fc polypeptides. ActRIIB-Fc polypeptides to be tested were independently captured onto the system using an anti-Fc antibody. Ligands were then injected and allowed to flow over the captured receptor protein.
(§3) A Biacore™-based binding assay was used to compare the ligand binding kinetics of an ActRIIB-Fc:ActRIIB(L79E)-Fc heterodimer with those of unmodified ActRIIB-Fc homodimer. Fusion proteins were captured onto the system using an anti-Fc antibody. Ligands were then injected and allowed to flow over the captured receptor protein at 37° C. Results are summarized in the table below, in which ligand off-rates (kd) most indicative of effective ligand traps are denoted in bold.

GDF8 = target: T2, GDF8 (Homo sapiens, UniProt O14793); assay: Biacore-based binding assay (surface plasmon resonance), GDF8; conditions: SPR 37° C.; compared to ActRIIB-G1Fc / ActRIIB-Fc homodimer
T2 sequence (O14793 267-375): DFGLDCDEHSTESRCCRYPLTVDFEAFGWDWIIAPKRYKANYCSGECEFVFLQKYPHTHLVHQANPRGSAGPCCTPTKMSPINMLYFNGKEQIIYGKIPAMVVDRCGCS
Protocol: as §1, §3

Activin B = target: T3, Activin B (Homo sapiens, UniProt P09529); assay: Biacore-based binding assay (surface plasmon resonance), activin B; conditions: SPR 37° C.; compared to ActRIIB-G1Fc / ActRIIB-Fc homodimer
T3 sequence (P09529 293-407): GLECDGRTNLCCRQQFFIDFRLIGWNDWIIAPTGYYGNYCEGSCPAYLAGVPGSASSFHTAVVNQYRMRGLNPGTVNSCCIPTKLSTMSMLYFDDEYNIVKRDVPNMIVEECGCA
Protocol: as §1, §3

BMP9 [2] = target: T4, BMP9 (Homo sapiens, UniProt Q9UK05); assay: Biacore-based binding assay (surface plasmon resonance), BMP9; conditions: SPR 37° C.; for binding to BMP9 compared to unmodified ActRIIB-Fc (in words): compared to ActRIIB-G1Fc / ActRIIB-Fc homodimer; for reduction in affinity for BMP9 compared with reduction in affinity for GDF11 or activin A: FIG. 9, compared to Fc fusion with unmodified ActRIIB extracellular domain
T4 sequence (Q9UK05 320-429): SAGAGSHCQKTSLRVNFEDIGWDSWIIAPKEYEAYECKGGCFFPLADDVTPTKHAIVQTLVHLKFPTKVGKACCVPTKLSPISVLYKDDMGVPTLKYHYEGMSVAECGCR
Protocol: as §1, §2, §3

BMP9 [3] = target: T5, BMP9 (UniProt Q9UK05 320-429); assay: cell-based or functional assay
T5 sequence (looked up): T4 sequence (Q9UK05 320-429)

GDF11 [4] = target: T6, GDF11 (UniProt O95390 299-407); assay: cell-based or functional assay
T6 construct: also called Growth and differentiation factor-11; BMP11
T6 sequence (looked up): T1 sequence (O95390 299-407)

BMP9 [5] = target: T4, BMP9; assay: A204 cell-based pGL3(CAGA)12 reporter gene assay, signaling by BMP9; conditions: A204 reporter gene assay
Description: (§4) To determine activity of variant ActRIIB-Fc polypeptides, an A204 cell-based assay was used to compare effects among variant ActRIIB-Fc polypeptides on signaling by activin A, activin B, GDF8, GDF11, BMP9, and BMP10, in comparison to ActRIIB-G1Fc. In brief, this assay uses a human A204 rhabdomyosarcoma cell line (ATCC®: HTB-82™) derived from muscle and the reporter vector pGL3(CAGA)12 (Dennler et al., 1998, EMBO 17: 3091-3100) as well as a Renilla reporter plasmid (pRLCMV) to control for transfection efficiency. The CAGA12 motif is present in TGF-β responsive genes (e.g., PAI-1 gene), so this vector is of general use for ligands that can signal through Smad2/3, including activin A. GDF11, and BMP9.
(§5) On day 1. A204 cells were transferred into one or more 48-well plates. On day 2, these cells were transfected with 10 μg pGL3(CAGA)12 or pGL3(CAGA)12(10 μg)+pRLCMV ([…]) and Fugene. On day 3, ligands diluted in medium containing 0.1% BSA were preincubated with ActRIIB-Fc polypeptides for 1 hr before addition to cells. Approximately six hour later, the cells were rinsed with PBS and lysed. Cell lysates were analyzed in a luciferase assay to determine the extent of Smad activation.
(§6) This assay was used to screen variant ActRIIB-Fc polypeptides for inhibitory effects on cell signaling by activin A, activin B. GDF8, GDF11. BMP9, and BMP10. Potencies of homodimeric Fc fusion polypeptides incorporating amino acid substitutions in the human ActRIIB extracellular domain were compared with that of an Fc fusion polypeptide comprising unmodified human ActRIIB extracellular domain, ActRIIB-G1Fc. For some variants tested, it was not possible to calculate an accurate IC50, but signs of inhibition in the slope of the curves were detectable. For these variants, an estimate was included of the order of magnitude of the relative IC50, i.e. >10 nM or >100 nM instead of a definite number. Such data points are indicated by a (*) in Table 3 below. For some variants tested, there was no detectable inhibition in the slope of the curves over the concentration range tested, which is indicated by “ND” in Table 4.
as §4, with “A,” for “A, activin B, GDF8,”, “GDF11,” for “GDF11, BMP9,”, “and BMP9.” for “and BMP10, in comparison to ActRIIB-G1Fc.”, “(Dennler el” for “(Dennler et”, “activin A,” for “activin A.”
(§7) On day 1, A-204 cells were transferred into one or more 48-well plates. On day 2, these cells were transfected with 10 μg pGL3(CAGA)12 or pGL3(CAGA)12(10 μg)+pRLCMV (1 μg) and Fugene. On day 3, ligands diluted in medium containing 0.1% BSA were preincubated with ActRIIB-Fc polypeptides for 1 hr before addition to cells. Approximately six hour later, the cells were rinsed with PBS and lysed. Cell lysates were analyzed in a luciferase assay to determine the extent of Smad activation.
(§8) This assay was used to screen variant ActRIIB-Fc polypeptides for inhibitory effects on cell signaling by activin A, GDF11, and BMP9. Potencies of homodimeric Fc fusion polypeptides incorporating amino acid substitutions in the human ActRIIB extracellular domain were compared with that of an Fc fusion polypeptide comprising unmodified human ActRIIB extracellular domain.

Activin A = target: T7, Activin A (Homo sapiens, UniProt P08476); assay: A204 cell-based pGL3(CAGA)12 reporter gene assay, signaling by activin A; conditions: A204 reporter gene assay
T7 sequence (P08476 311-426): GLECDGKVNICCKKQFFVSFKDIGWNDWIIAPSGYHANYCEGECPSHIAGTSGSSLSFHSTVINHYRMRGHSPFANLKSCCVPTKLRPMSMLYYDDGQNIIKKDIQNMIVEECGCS
Description: as §4, §5, §6
as §4, with “A,” for “A, activin B, GDF8,”, “GDF11,” for “GDF11, BMP9,”, “and BMP9.” for “and BMP10, in comparison to ActRIIB-G1Fc.”, “(Dennler el” for “(Dennler et”, “activin A,” for “activin A.”
as §7, §8

GDF11 [6] = target: T1, GDF11; assay: A204 cell-based pGL3(CAGA)12 reporter gene assay, signaling by GDF11; conditions: A204 reporter gene assay
Description: as §4, §5, §6
as §4, with “A,” for “A, activin B, GDF8,”, “GDF11,” for “GDF11, BMP9,”, “and BMP9.” for “and BMP10, in comparison to ActRIIB-G1Fc.”, “(Dennler el” for “(Dennler et”, “activin A,” for “activin A.”
as §7, §8

Row | Substance | GDF11 binding compared to unmodified ActRIIB-Fc (in words) (GDF11 [1]) | GDF8 binding compared to unmodified ActRIIB-Fc (in words) (GDF8) | affinity for activin B compared to unmodified ActRIIB-Fc (in words) (Activin B) | binding to BMP9 compared to unmodified ActRIIB-Fc (in words) (BMP9 [2]) | IC50 (ng/ml), A204 CAGA12 luciferase reporter assay (BMP9 [3]) [ng/mL] | IC50 (ng/ml), A204 CAGA12 luciferase reporter assay (GDF11 [4]) [ng/mL] | inhibition of BMP9 compared to fusion polypeptide with unmodified ActRIIB extracellular domain (in words) (BMP9 [5]) | selectivity of antagonism (activin A and GDF11 over BMP9) compared to unmodified ActRIIB-Fc (BMP9 [5]) | inhibition of activin A compared to fusion polypeptide with unmodified ActRIIB extracellular domain (in words) (Activin A) | inhibition of GDF11 compared to fusion polypeptide with unmodified ActRIIB extracellular domain (in words) (GDF11 [6]) | reduction in affinity for BMP9 compared with reduction in affinity for GDF11 or activin A (BMP9 [2]) | further results
1 | F82T-N83R: homodimeric ActRIIB-G1Fc fusion with F82T and N83R substitutions; mature SEQ ID NO: 335 | significant decrease in GDF8 and GDF11 binding | significant decrease in GDF8 and GDF11 binding | relatively high affinity for activin B | decrease in binding to BMP9 | – | – | – | – | – | – | – | –
2 | F82W/N83A (homodimeric ActRIIB-Fc construct) (Fc fusion) | – | – | – | – | 40000 | 389 | – | – | – | – | – | –
3 | F82K-N83R: homodimeric ActRIIB-G1Fc fusion with F82K and N83R substitutions; mature SEQ ID NO: 332 | significant decrease in GDF8 and GDF11 binding | significant decrease in GDF8 and GDF11 binding | relatively high affinity for activin B | decrease in binding to BMP9 | – | – | – | – | – | – | – | –
4 | K55A: homodimeric ActRIIB-G1Fc fusion with K55A substitution; mature SEQ ID NO: 33 | – | – | – | – | – | – | less potent inhibition of BMP9 | more selective antagonists of activin A and GDF11 | essentially undiminished inhibition of activin A and GDF11 | essentially undiminished inhibition of activin A and GDF11 | reduce ActRIIB binding affinity for BMP9 more than they reduce ActRIIB affinity for activin A or GDF11 | reduction in affinity for BMP9 compared with reduction in affinity for GDF11 or activin A (BMP9 [2]; listed as ActRIIB(K55A)-Fc): greater reduction in their affinity for BMP9 than for GDF11
5 | F82I-N83R: homodimeric ActRIIB-G1Fc fusion with F82I and N83R substitutions; mature SEQ ID NO: 278 | significant decrease in GDF8 and GDF11 binding | significant decrease in GDF8 and GDF11 binding | relatively high affinity for activin B | decrease in binding to BMP9 | – | – | – | – | – | – | – | –
6 | R40A (homodimeric ActRIIB-Fc construct) (Fc fusion) | – | – | – | – | 1210 | 591 | – | – | – | – | – | –
7 | K55E: homodimeric ActRIIB-G1Fc fusion with K55E substitution; mature SEQ ID NO: 36 | – | – | – | – | – | – | less potent inhibition of BMP9 | more selective antagonists of activin A and GDF11 | essentially undiminished inhibition of activin A and GDF11 | essentially undiminished inhibition of activin A and GDF11 | reduce ActRIIB binding affinity for BMP9 more than they reduce ActRIIB affinity for activin A or GDF11 | reduction in affinity for BMP9 compared with reduction in affinity for GDF11 or activin A (BMP9 [2]; listed as ActRIIB(K55E)-Fc): greater reduction in their affinity for BMP9 than for GDF11
8 | F82I: homodimeric ActRIIB-G1Fc fusion with F82I substitution; mature SEQ ID NO: 39 | – | – | – | – | – | – | less potent inhibition of BMP9 | more selective antagonists of activin A and GDF11 | essentially undiminished inhibition of activin A and GDF11 | essentially undiminished inhibition of activin A and GDF11 | reduce ActRIIB binding affinity for BMP9 more than they reduce ActRIIB affinity for activin A or GDF11 | reduction in affinity for BMP9 compared with reduction in affinity for GDF11 or activin A (BMP9 [2]; listed as ActRIIB(F82I)-Fc): greater reduction in their affinity for BMP9 than for GDF11
9 | K74R (homodimeric ActRIIB-Fc construct) (Fc fusion) | – | – | – | – | 165 | 45 | – | – | – | – | – | –
